One test deals with T1, CD19 antigen molecule (human, UniProt P15391 20-556).
T1 sequence (looked up): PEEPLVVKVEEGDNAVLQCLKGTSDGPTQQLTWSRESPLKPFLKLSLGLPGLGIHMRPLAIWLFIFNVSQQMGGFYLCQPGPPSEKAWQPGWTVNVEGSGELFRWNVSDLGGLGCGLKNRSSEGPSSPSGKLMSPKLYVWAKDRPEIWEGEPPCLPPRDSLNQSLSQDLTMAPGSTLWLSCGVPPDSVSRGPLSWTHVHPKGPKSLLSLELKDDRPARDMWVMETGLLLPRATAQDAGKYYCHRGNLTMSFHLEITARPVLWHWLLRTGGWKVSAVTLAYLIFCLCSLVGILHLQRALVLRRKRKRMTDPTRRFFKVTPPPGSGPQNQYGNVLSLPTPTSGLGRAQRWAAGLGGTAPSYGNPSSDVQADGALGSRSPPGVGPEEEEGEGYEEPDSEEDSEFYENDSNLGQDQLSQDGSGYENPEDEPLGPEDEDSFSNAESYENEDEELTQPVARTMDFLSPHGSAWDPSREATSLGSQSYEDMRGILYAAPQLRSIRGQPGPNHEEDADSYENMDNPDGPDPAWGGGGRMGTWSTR
In words: cell-based or functional assay.

The target in another test is T2, CD22 antigen molecule (human, UniProt P20273 20-847).
T2 sequence (looked up): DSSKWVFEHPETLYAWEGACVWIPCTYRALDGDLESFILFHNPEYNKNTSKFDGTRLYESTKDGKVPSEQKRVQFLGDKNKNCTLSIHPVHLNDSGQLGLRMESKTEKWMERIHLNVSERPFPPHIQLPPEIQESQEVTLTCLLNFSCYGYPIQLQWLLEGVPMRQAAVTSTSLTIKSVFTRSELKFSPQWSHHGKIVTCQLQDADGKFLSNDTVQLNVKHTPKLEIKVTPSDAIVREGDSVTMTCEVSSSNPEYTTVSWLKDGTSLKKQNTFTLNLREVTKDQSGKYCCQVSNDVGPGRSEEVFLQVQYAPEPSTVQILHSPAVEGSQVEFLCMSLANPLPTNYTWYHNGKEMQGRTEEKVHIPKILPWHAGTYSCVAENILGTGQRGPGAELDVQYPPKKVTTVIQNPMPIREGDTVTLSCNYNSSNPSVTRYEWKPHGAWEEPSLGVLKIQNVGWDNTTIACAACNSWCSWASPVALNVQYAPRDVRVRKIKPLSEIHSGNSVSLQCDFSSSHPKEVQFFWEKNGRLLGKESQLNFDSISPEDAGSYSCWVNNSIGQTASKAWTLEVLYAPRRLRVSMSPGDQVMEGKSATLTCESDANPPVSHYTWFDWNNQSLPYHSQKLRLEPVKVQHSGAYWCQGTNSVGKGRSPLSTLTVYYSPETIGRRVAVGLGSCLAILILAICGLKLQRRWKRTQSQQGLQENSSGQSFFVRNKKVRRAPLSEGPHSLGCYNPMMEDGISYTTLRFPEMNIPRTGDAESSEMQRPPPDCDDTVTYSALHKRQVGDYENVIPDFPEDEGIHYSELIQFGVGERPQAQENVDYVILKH
In words: cell-based or functional assay.

This note sets out measurements from patent US20230272069A1 (INSTITUTE OF HEMATOLOGY AND BLOOD DISEASES HOSPITAL CHINESE …, published 2023).

B1: CD19 VL-CD22 VL-CD22 VH-CD19 VH-CD8α-4-1BB-CD3ζ CAR (other)
chain: DIVLTQSPKFMSTSVGDRVSVTCKASQNVGTNVAWYQQKPGQSPKPLIYSATYRNSGVPDRFTGSGSGTDFTLTITNVQSKDLADYFCQQYNRYPYTSGGGTKLEIKRGGGGSDIELTQSPSSLAVSVGEKVTMSCKSSQSLLYSSNQKNYLAWYQQKPGQSPKLLIYWASTRESGVPDRFTGSGSGTDFTLTVSSVKAEDLAVYYCQQSYSYPFTFGSGTKLEIKRGSTSGSGKPGSGEGSTKGQVKLQQSGPELVKPGASVKISCKASGYDFSISWMNWVRQRPGQGLEWIGRIYPGDGDSNYNGKFEGKATLTADKSSSTAYMQLSGLTSVDSAVYFCARTTTMIALYAMDYWGQGTTVTVSSGGGGSQVQLQQSGAELVRPGSSVKISCKASGYAFSSYWMNWVKQRPGQGLEWIGQIYPGDGDTNYNGKFKGQATLTADKSSSTAYMQLSGLTSEDSAVYFCARKTISSVVDFYFDYWGQGTTLTVSSEFTTTPAPRPPTPAPTIASQPLSLRPEACRPAAGGAVHTRGLDFACDIYIWAPLAGTCGVLLLSLVITLYKRGRKKLLYIFKQPFMRPVQTTQEEDGCSCRFPEEEEGGCELRVKFSRSADAPAYQQGQNQLYNELNLGRREEYDVLDKRRGRDPEMGGKPRRKNPQEGLYNELQKDKMAEAYSEIGMKGERRRGKGHDGLYQGLSTATKDTYDALHMQALPPR
As to B1, the “degranulation level (CD107a on GFP+ cells) after co-culture with MV4-11-CD19 cells, E:T 1:1, 4 h” value with CD19 antigen molecule is at least 25%. In the test with CD22 antigen molecule, the “degranulation level (CD107a on GFP+ cells) after co-culture with MV4-11-CD22 cells, E:T 1:1, 4 h” value was at least 15%.

B2: CD22 scFv-CD19 scFv-CD8α-4-1BB-CD3ζ CAR (other)
chain: DIELTQSPSSLAVSVGEKVTMSCKSSQSLLYSSNQKNYLAWYQQKPGQSPKLLIYWASTRESGVPDRFTGSGSGTDFTLTVSSVKAEDLAVYYCQQSYSYPFTFGSGTKLEIKRGGGGSGGGGSGGGGSQVKLQQSGPELVKPGASVKISCKASGYDFSISWMNWVRQRPGQGLEWIGRIYPGDGDSNYNGKFEGKATLTADKSSSTAYMQLSGLTSVDSAVYFCARTTTMIALYAMDYWGQGTTVTVSSEAAAKEAAAKEAAAKEAAAKEAAAKDIVLTQSPKFMSTSVGDRVSVTCKASQNVGTNVAWYQQKPGQSPKPLIYSATYRNSGVPDRFTGSGSGTDFTLTITNVQSKDLADYFCQQYNRYPYTSGGGTKLEIKRGGGGSGGGGSGGGGSQVQLQQSGAELVRPGSSVKISCKASGYAFSSYWMNWVKQRPGQGLEWIGQIYPGDGDTNYNGKFKGQATLTADKSSSTAYMQLSGLTSEDSAVYFCARKTISSVVDFYFDYWGQGTTLTVSSEFTTTPAPRPPTPAPTIASQPLSLRPEACRPAAGGAVHTRGLDFACDIYIWAPLAGTCGVLLLSLVITLYKRGRKKLLYIFKQPFMRPVQTTQEEDGCSCRFPEEEEGGCELRVKFSRSADAPAYQQGQNQLYNELNLGRREEYDVLDKRRGRDPEMGGKPRRKNPQEGLYNELQKDKMAEAYSEIGMKGERRRGKGHDGLYQGLSTATKDTYDALHMQALPPR
In the case of B2, in the test with CD19 antigen molecule, the “degranulation level (CD107a on GFP+ cells) after co-culture with MV4-11-CD19 cells, E:T 1:1, 4 h” value was at least 25%. Moreover, the “degranulation level (CD107a on GFP+ cells) after co-culture with MV4-11-CD22 cells, E:T 1:1, 4 h” value with CD22 antigen molecule was at least 15%.
